Results on five molecules are retold here after US20070014776A1, “Identification of adiponutrin-related proteins as esterases and methods of use for the same” (priority 2005, published 2007).

Assay [1] has as its system 3T3-L1 adipocytes. Description: Effect of adiponutrin overexpression on 3T3-L1 lipase activity (free fatty acid and glycerol release). The assay is classed as cell-based, mouse. On the procedure: For adenovirus infection, 3T3-L1 cells were cultured in DMEM with 10% FBS at 37° C. with 5% CO2. Two days after the cultures were confluent, the cells were induced to differentiate (defined as day 0) by incubation in DMEM supplemented with 10% FBS, 1 μM dexamethasone (Sigma, St. Louis, Mo.), 0.5 mM isobutylmethylxanthine (Sigma) (MIX), and 1 μg/ml insulin (Sigma). After two days, the medium was replaced with DMEM supplemented with 10% FBS and 1 μg/ml insulin, and cells were then fed every 2 days with the same medium. At day 8 of differentiation, cells grown in 24-well plates were incubated with 500 MOI of adenovirus in OPTI-MEM (Invitrogen, Carlsbad, Calif.) for 2 hours and then DMEM with 10% FBS. After 48 hours, cells were incubated with DMEM with no serum overnight. The next day, cells were washed three times with PBS and incubated with PBS with 2% fatty acid-free BSA (Sigma, St. Louis, Mo.) with 10 μM or 100 nM of isoproterenol (Sigma). When needed, cells were preincubated with 100 nM insulin 30 min prior to isoproterenol treatment. Conditioned medium was taken at the indicated 0-4 hours after isoproterenol treatment and analyzed for free fatty acids and glycerol. Free fatty acids release was measured by using a NEFA-c kit (Wako Chemicals, Richmond, Va.) and glycerol release was measured by using a lipolysis kit (Zen-bio, Research Triangle Park, N.C.).

Assay [2] can be described thus: Lipase assay with DGGR substrate on immunoprecipitated V5-tagged proteins. It is filed as biochemical. The following applies: V5-tagged WT vs patatin-like domain mutant (Ser of GXSXG to Ala); FIG. 6. The protocol:
HEK293 cells were grown in DMEM media supplemented with 10% fetal calf serum at 37° C. in an atmosphere of 5% CO2. Ten cm tissue culture dishes with 90% confluent HEK293 cells were transfected using Lipofectamine 2000 according to the manufacturer's instructions (Invitrogen, Carlsbad, Calif.). Ten μg of plasmid DNA containing the following expression constructs were used: GFP, human adiponutrin, human adiponutrin-c-term-V5, human desnutrin/ATGL-c-term-V5-6His, human GS2-c-term-V5, human GS2-like-c-term-V5-6His, and patatin-like domain mutants of c-term-V5 and c-term-V5-6His tagged constructs. Three days post-transfection, cells were washed with ice cold TBS and harvested. Cells were pelleted by centrifugation at 1000×g for 5 minutes. Supernatant was discarded, and pellets stored at −80° C. until used for assays.
Frozen cells, as described above, were resuspended in 1 ml of lipase reaction buffer (20 mM Tris-HCl, pH 8.0, 150 mM NaCl, 0.53% sodium taurodeoxycholate, 1.33 mM CaCl2) containing complete mini-protein inhibitor tablets (Invitrogen, Carlsbad, Calif.; 1 tablet per 7 ml). The resulting suspensions were then sonicated on ice with 4 bursts of 10 seconds from a probe sonicator. Homogenized lysate was then centrifuged at 1000×g for 10 minutes to remove cell debris. A 50 μl aliquot of the resulting lysate was saved for analysis and the remaining lysate was used for the immunoprecipitation. Anti-V5 mouse monoclonal antibody (7.2 μg; Invitrogen, Carlsbad, Calif.) was added to each lysate and then placed at 4° C. overnight with tumbling. Next, 20 μl of protein-A beads (Repligen) was added to each sample and tumbled at 4° C. for 2 hours. Beads were then pelleted with gentle centrifugation and […] of supernatant was saved for analysis. The beads were washed 4 times with 900 μl of lipase reaction buffer followed by resuspension in 100 μl of lipase reaction buffer.
The lipase assay (Lehner and Verger (1997) Biochemistry 36:1861-68) uses 1,2-o-dilauryl-rac-glycero-3-glutaric acid-(6′-methylresorufin) ester (DGGR) as substrate. DGGR is cleaved by lipase, resulting in an unstable dicarbonic acid ester that is spontaneously hydrolyzed to yield glutaric acid and methylresorufin, a bluish-purple chromophore with peak absorption at 581 nm. The rate of methylresorufin formation is directly proportional to the lipase activity in the sample. Ten μl of whole cell lysate or IP beads were added to the wells of a 96-well plate. After diluting the samples up to 125 μl in lipase reaction buffer, 125 μl of reaction buffer containing DGGR (final concentration 36 μg/ml in a final assay volume of 250 μl per well). After mixing, OD 581 was monitored at 5 minute intervals for 2 hours to assess lipase activity. Lipase activity is plotted as delta-OD 581/sec. […]

For assay [3], the system named is HEK293 cells. Briefly: [1-14C]-oleic acid incorporation into triglyceride in transfected HEK293 cells. It is filed as cell-based. The settings on record: overexpression in HEK293 cells; for intracellular triglycerides: compared to control cells (empty vector), FIG. 7. On the procedure: HEK293 cells were cultured in Dulbecco's modified Eagle's medium (DMEM) that contained 10% FBS at 37° C. with 5% CO2. HEK293 cells grown in 12-well plates to 60-70% confluence were transfected with 0.5 μg of human adiponutrin, desnutrin/ATGL, GS2, or GS2-like expression vector using FuGene (Roche). Empty vector, pADORI1.2 was used as a control. After 48 hours, cells were treated with 4 μM [1-^14C]-oleic acid (204 μCi/ml total; Perkin Elmer) and 16 μM cold oleic acid (Sigma) in serum-free DMEM. After 4 hours, cells were washed twice and incubated further with DMEM with 10% FBS. After 16 hours, lipids were extracted and separated by TLC using hexane/ether/acetic acid (80:20:1). Radioactive lipids were detected and quantitated by Molecular Imager FX (Bio-Rad).

[4] abbreviates: adenoviral overexpression in 3T3-L1 adipocytes, after treatment with 10 μM isoproterenol, vs GFP, FIG. 8.

Take insulin [reference compound]: the isoproterenol-stimulated lipolysis entry in assay [1] (submaximal isoproterenol, preincubation with 100 nM insulin, FIG. 9) is listed as “decreased”.

B1: desnutrin/ATGL: human desnutrin/adipocyte triglyceride lipase protein, SEQ ID NO:5 (protein, listed as Homo sapiens)
chain: MFPREKTWNISFAGCGFLGVYYVGVASCLREHAPFLVANATHIYGASAGALTATALVTGVCLGEAGAKFIEVSKEARKRFLGPLHPSFNLVKIIRSFLLKVLPADSHEHASGRLGISLTRVSDGENVIISHFNSKDELIQANVCSGFIPVYCGLIPPSLQGVRYVDGGISDNLPLYELKNTITVSPFSGESDICPQDSSTNIHELRVTNTSIQFNLRNLYRLSKALFPPEPLVLREMCKQGYRDGLRFLQRNGLLNRPNPLLALPPARPHGPEDKDQAVESAQAEDYSQLPGEDHILEHLPARLNEALLEACVEPTDLLTTLSNMLPVRLATAMMVPYTLPLESALSFTIRLLEWLPDVPEDIRWMKEQTGSICQYLVMRAKRKLGRHLPSRLPEQVELRRVQSLPSVPLSCAAYREALPGWMRNNLSLGDALAKWEECQRQLLLGLFCTNVAFPPEALRMRAPADPAPAPADPASPQHQPAGPAPLLSTPAPEARPVIGALGL
Regarding B1, the “rate of lipid hydrolysis, wild-type versus active-site serine to alanine mutant” value in assay [2] is listed as “significantly higher”. In addition, the intracellular triglycerides entry in assay [3] is given as “significant decrease”.

B2: GS2-like: human GS2-like protein, SEQ ID NO:11; adiponutrin family member (protein, listed as Homo sapiens)
chain: MGFLEEEGRWNLSFSGAGYLGAHHVGATECLRQRAPRLLQGARRIYGSSSGALNAVSIVCGKSVDFCCSHLLGMVGQLERLSLSILHPAYAPIEHVKQQLQDALPPDAHVLASQRLGISLTRWPDGRNFLVTDFATCDELIQALVCTLYFPFYCGLIPPEFRGERYIDGALSNNLPFADCPSTITVSPFHGTVDICPQSTSPNLHELNVFNFSFQISTENFFLGLICLIPPSLEVVADNCRQGYLDALRFLERRGLTKEPVLWTLVSKEPPAPADGNWDAGCDQRWKGGLSLNWKVPHVQVKDVPNFEQLSPELEAALKKACTRDPSRWARFWHSGPGQVLTYLLLPCTLPFEYIYFRSRRLVVWLPDVPADLWWMQGLLRNMALEVFSRTKAQLLGPISPPATRVLETSPLQPQIAPHREELGPTHQA
Take B2: the “rate of lipid hydrolysis, wild-type versus active-site serine to alanine mutant” value in assay [2] is reported as “not affected”. In addition, the intracellular triglycerides entry in assay [3] is given as “decreased intracellular triglycerides significantly”.

B3: GS2: human GS2 protein, SEQ ID NO:8; adiponutrin family member (protein, listed as Homo sapiens)
chain: MKHINLSFAACGFLGIYHLGAASALCRHGKKLVKDVKAFAGASAGSLVASVLLTAPEKIEECNQFTYKFAEEIRRQSFGAVTPGYDFMARLRSGMESILPPSAHELAQNRLHVSITNAKTRENHLVSTFSSREDLIKVLLASSFVPIYAGLKLVEYKGQKWVDGGLTNALPILPVGRTVTISPFSGRLDISPQDKGQLDLYVNIAKQDIMLSLANLVRLNQALFPPSKRKMESLYQCGFDDTVKFLLKENWFE
For B3, the “rate of lipid hydrolysis, wild-type versus active-site serine to alanine mutant” value in assay [2] was “significantly higher”. In addition, the intracellular triglycerides entry in assay [3] is given as “decreased intracellular triglycerides significantly”.

B4: adiponutrin: human adiponutrin protein, SEQ ID NO:2; patatin-like domain protein of the adiponutrin family, expressed recombinantly (protein, listed as Homo sapiens)
chain: MYDAERGWSLSFAGCGFLGFYHVGATRCLSEHAPHLLRDARMLFGASAGALHCVGVLSGIPLEQTLQVLSDLVRKARSRNIGIFHPSFNLSKFLRQGLGKCLPANVHQLISGKIGISLTRVSDGENVLVSDFRSKDEVVDALVCSCFMPFYSGLIPPSFRGVRYVDGGVSDNVPFIDAKTTITVSPFYGEYDICPKVKSTNFLHVDITKLSLRLCTGNLYLLSRAFVPPDLKVLGEICLRGYLDAFRFLEEKGICNRPQPGLKSSSEGMDPEVAMPSWANMSLDSSPESAALAVRLEGDELLDHLRLSILPWDESILDTLSPRLATALSEEMKDKGGYMSKICNLLPIRIMSYVMLPCTLPVESAIAIVQRLVTWLPDMPDDVLWLQWVTSQVFTRVLMCLLPASRSQMPVSSQQASPCTPEQDWPCWTPCSPEGCPAETKAEATPRSILRSSLNFFLGNKVPAGAEGLSTFPSFSLEKSL
As to B4, in assay [1] (setting [4]), the “release of free fatty acids into the medium” value is “significantly decreased” and the “release of glycerol into the medium” value is “significantly decreased”. The basal lipolysis entry in assay [1] (adenoviral overexpression in 3T3-L1 adipocytes, no isoproterenol, FIG. 9) is reported as “no effect”. Also, the “inhibition of lipolysis by insulin” value in assay [1] (adenoviral overexpression in 3T3-L1 adipocytes, submaximal isoproterenol plus insulin, FIG. 9) was “significantly enhanced”. Also, the “rate of lipid hydrolysis, wild-type versus active-site serine to alanine mutant” value in assay [2] is recorded as “significantly higher”. In addition, the intracellular triglycerides result in assay [3] is recorded as “unable to demonstrate a decrease”. Moreover, the triglyceride incorporation entry in assay [3] (in several experiments (data not shown)) was “trend toward increased triglyceride incorporation”.
